Data taken from US20250333501A1 (University of California, published 2025).

T1: CLDN6 endogenously expressed by human cancer cell lines (ARK2, OVCA429) (human, UniProt P56747 1-220)
T1 construct: Untagged endogenous protein; also called Endogenous CLDN6+
T1 sequence: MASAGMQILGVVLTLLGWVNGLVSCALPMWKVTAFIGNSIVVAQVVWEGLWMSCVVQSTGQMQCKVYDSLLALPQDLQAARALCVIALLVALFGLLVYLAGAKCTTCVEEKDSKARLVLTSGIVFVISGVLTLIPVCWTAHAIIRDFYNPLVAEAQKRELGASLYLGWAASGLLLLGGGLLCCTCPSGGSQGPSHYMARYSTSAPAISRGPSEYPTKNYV

T2: human CLDN6 fused to GFP, expressed on engineered HEK293T cells (HEK293T-CLDN6-mGFP) (human, UniProt P56747 1-220)
T2 construct: It calls residues 1-21 a signal peptide; also called Claudin-6; HEK293T-CLDN6-mGFP Artificial CLDN6+; not shown: mGFP tag
T2 sequence: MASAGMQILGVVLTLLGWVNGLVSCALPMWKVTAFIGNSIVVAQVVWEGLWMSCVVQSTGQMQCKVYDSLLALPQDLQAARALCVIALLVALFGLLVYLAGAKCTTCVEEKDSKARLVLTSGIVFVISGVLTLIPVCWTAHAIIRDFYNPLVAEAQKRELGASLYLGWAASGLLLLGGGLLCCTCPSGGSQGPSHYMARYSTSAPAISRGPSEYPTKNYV


Legend:
[1] = biological target: T1, CLDN6 endogenously expressed by human …; assay: FACS, AF647-labelled mAb, ARK2 cells
Procedure: (§1) Antibodies were purified and cell surface binding of the antibodies to CLDN6 and the antibody IC₅₀ were determined by FACS in which CLDN6 antibodies were directly conjugated with Alexa Fluor® 647 NHS Ester (Succinimidyl Ester), Cat #A20106 (ThermoFisher Scientific) following the manufacturer's protocol. CLDN6 antibodies were tested from 0.32 nM to 1000 nM (serial dilution 1:5, 6 points) in a 50 μl volume with 150,000 cells system.
(§2) CLDN6-expressing cells were used in FACS assays to determine the CLDN6 antibody's ability to bind to CLDN6 on the surface of cells and to cross-react with other CLDN family members. HEK293 T cells engineered to express human CLDN6 fused to GFP, mouse CLDN6 fused to GFP, CLDN9-GFP, CLDN4-GFP, or CLDN3-GFP, or GFP alone (without CLDN6) were used as artificial models of CLDN6 expression. ARK2, OVCA429, LS513 and MCF7 cells were used as endogenous models of CLDN6 expression, as well as models for CLDN3/4 expression.
(§3) For each type of cell tested and for each mAb, cells were detached from the surface of the culture flasks by EDTA (instead of trypsin) in order to protect the cell surface proteins. The detached cells were then incubated with Alexa Fluor®-labeled CLDN6 mAbs for 30 min in the dark on ice at a pre-determined concentration. The CLDN6 mAbs were directly labeled with Alexa Fluor® 647 NHS Ester (Succinimidyl Ester). After washing, the cells were read by a BD Accuri™ Flow Cytometer C6 to detect antibody-antigen protein binding in channel FL4H. Each antibody was tested at varied concentrations to establish a dose-fluorescence curve. The EC50/IC50 of the antibodies (the concentration of the antibody at which half the max value were calculated based on the values of FL4H (gated in viable singlet cells) using the Very Simple IC50 Tool kit available online which allows biological dose-response data to be plotted and fitted to curve types to give the EC50/IC50. The max value was the lowest concentration of the antibody at which fluorescence maxes out. The antibodies were also screened for their ability to cross-react with other CLDN proteins such as CLDN9, CLDN3, and CLDN4. These values were used to determine each antibody's relative affinity among the set of antibodies tested. Cross-reactivity data were obtained using a similar methodology, but with cells having a different expression profile for CLDN6, CLDN3, CLDN4 and CLDN9.

[2] = biological target: T2, human CLDN6 fused to GFP, expressed on …; assay: FACS, AF647-labelled mAb, HEK293T-CLDN6-mGFP cells
Procedure: as §1, §2, §3

[3] = biological target: T1, CLDN6 endogenously expressed by human …; assay: FACS, AF647-labelled mAb, OVCA429 cells
Procedure: as §1, §2, §3

[4] = biological target: T1, CLDN6 endogenously expressed by human …; assay: FACS, 1.5 µg Ab, OVCA429 cells
[5] = biological target: T1, CLDN6 endogenously expressed by human …; assay: FACS, 1.5 µg Ab, ARK2 cells
Procedure: (§4) FACS assays were also carried out to determine relative antigen binding strengths of the humanized antibodies (at either 1.5 μg or 0.3 μg) for binding to CLDN6 as expressed by the indicated cancer cell lines. 2nd Ab only was used as a negative control.

[6] = biological target: T2, human CLDN6 fused to GFP, expressed on …; assay: FACS, 1.5 µg Ab, 293T clone with human CLDN6
Outline: (§5)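 Using a direct-binding flow cytometry method essentially as in the source, humanized antibodies were tested on engineered 293T clones expressing human CLDN6. Labelled antibody (Alexa Fluor 647 NHS ester) was added at 0.3 µg or 1.5 µg to EDTA-detached cells, which were kept on ice in the dark for 30 min, washed and read in channel FL4H of a BD Accuri C6. Fluorescence indicates relative antigen binding strength.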

[7] = biological target: T2, human CLDN6 fused to GFP, expressed on …; assay: FACS, 0.3 µg Ab, 293T clone with human CLDN6
Outline: as §5

[8] = biological target: T1, CLDN6 endogenously expressed by human …; assay: FACS, 0.3 µg Ab, ARK2 cells
Procedure: as §4

Row | EC50 [1] [nM] | EC50 [2] [nM] | EC50 [3] [nM] | FACS fluorescence [4] | FACS fluorescence [5] | FACS fluorescence [6] | FACS fluorescence [7] | FACS fluorescence [8] | Binder
1 | 48 | 17 | 168 |  |  |  |  |  | AB4 (antibody, V domains shown, Labelled with Alexa Fluor 647 for FACS and with Texas Red-X in the internalization assay) VH: QVQLQQSGAELARPGASVKMSCKASGYTFTSYTMHWIKQRPGQGQEWIGYINPSSTYTHYIKKFKDKATLTADKSSSTAYMQLRSLTSEDSAVYYCSRGELGGFAYWGQGTLVTVSA VL: DVVMTQTPLSLPVSLGDQASISCRSSQSLVHSDGNTYLNWYLQKPGQSPKLLIYKVSNRFSGVPDRFSGSGSGTDFTLKIRRVEAEDLGVYFCSQSTHVPYTFGGGTKLEIK
2 | 1140 | 1920 | 1090 |  |  |  |  |  | AB8 (antibody, V domains shown, Labelled with Alexa Fluor 647 NHS ester for FACS) VH: QVQLQQSGAELARPGASVKMSCKASGYTFTTYTMHWLKQRPGQGLEWIGYINPRSGYSNYNQKFKDKATLTADKSSNTAYMQLNTLTSEDSKVYYCSRGELGGFAYWGQGTLVTVSA VL: DVVMTQTPLSLPVSLGDQASISCRSSQSLVHSDGNTYLYWYLQKPGQSPKLLIYKVSNRFSGVPDRFSGSGSGTDFTLKISRVEAEDLGVYFCSQSTHVPYTFGGGTKLEIK
3 |  |  |  | 2690 | 1940 | 2560 | 1290 | 1400 | AB11-2 (antibody, V domains shown, also called Humanized AB 11-2) VH: EVQLVESGGGLVQPGGSLRLSCAASGFTFSSFGMHWVRQAPGKGLEWVAYISSDSRTIYYADSVKGRFTISRDNAKNSLYLQMNSLRAEDTAVYYCARDYGRTYEAYWGQGTLVTVSS VL: DIVMTQSPDSLAVSLGERATINCRASKSVSTSGYSYIHWYQQKPGQPPKLLIYLASNLESGVPDRFSGSGSGTDFTLTISSLQAEDVAVYYCQHSRELPLTFGQGTKLEIK
4 |  |  |  | 2200 | 1540 | 2360 | 1010 | 1320 | AB11-3 (antibody, V domains shown, also called Humanized AB 11-3) VH: EVQLVESGGGLVQPGGSLRLSCAASGFTFSSFGMHWVRQAPGKGLEWVAYISSDSRTIYYADSVKGRFTISRDNAKNSLYLQMNSLRAEDTAVYYCARDYGRTYEAYWGQGTLVTVSS VL: DIVLTQSPDSLAVSLGERATINCRASKSVSTSGYSYIHWYQQKPGQPPKLLIYLASNLESGVPDRFSGSGSGTDFTLTISSVQAEDVAVYYCQHSRELPLTFGQGTKLELK
5 | 8 | 10 | 5 |  |  |  |  |  | AB5 (antibody, V domains shown, Labelled with Alexa Fluor 647 NHS ester for FACS) VH: EVQLQQSGPELVKPGASVKMSCKASGYIFTHYIMHWVKQKPGQGLEWIGCINPYNDGTKYNEKFKGKATLTSDKSSSTAYMELSSLTSEDSAVYYCARYYGYPYYSMDYWGQGTSVTVSS VL: DVLMTQTPLSLPVSLGDQPSISCRSSQSIVHSNGNTYLDWYLQKPGQSPKLLIYKVSNRFSGVPDRFSGSGSGTDFTLKISRVEAEDLGVYYCFQGSHVPFTFGSGTRLEIK
6 | 765 | 1430 | 394 |  |  |  |  |  | AB6 (antibody, V domains shown, Labelled with Alexa Fluor 647 NHS ester for FACS) VH: DVQLQESGPGLVKSSQSLSLTCSVTGYSITSGYYWKWIRQFPGNKLEWMGYISYDGGINYNPSLKNRISITRDTSKNQFFLKLNSVTTEDTAKYYCARFGKGAMDYWGQGTSVTVSS VL: AIVMFQSPSSLVVSAGEKVTMSCKSSQSLLNSRTRKNYLAWYQQKPGQSPKLLIYWASTRESGVPDRFTGSGSGTDFTLTISSVQAEDLAVYYCKQSYYLYTFGGGTKLEIK
7 | 1650 | 604 | 1100 |  |  |  |  |  | AB3 (antibody, V domains shown, Labelled with Alexa Fluor 647 for FACS and with Texas Red-X in the internalization assay) VH: EVKLEESGGGLVQPGGSMKLSCVASGFTFSNYWMNWVRQSPEKGLEWVAQIRLKSDNYATHYAESVKGRFTISRDDSKRSVYLQMNNLRAEDTGTYYCNDGPPSGCWGQGTTLIVSS VL: DIQMTQSPASLSASVGETVTITCRISENIYSYLAWYQQKQGKSPQLLVYNAKILVEGVPSRFSGSGSGTQFSLKINSLQPEDFGNYYCQHHYTVPWTFGGGTKLEIK
8 | 1360 | 182 | 912 |  |  |  |  |  | AB2 (antibody, V domains shown, Labelled with Alexa Fluor 647 NHS ester for FACS) VH: EVKLEESGGGLVQPGGSMKLSCVASGFTFSDYWMNWVRQSPEKGLEWVAQIRLKSDNYATHYAESVKGRFTISRDDSKRSVYLQMNNLRAEDTGTYYCNDGPPSGCWGQGTTLIVSS VL: DIQMTQSPASLSASVGETVTITCRISENIYSYLAWYQQKQGKSPQLLVYNAKILVEGVPSRFSGSGSGTQFSLKINSLQPEDFGNYYCQHHYTVPWTFGGGTKLEIK
9 | 105 | 109 | 84 |  |  |  |  |  | AB1 (antibody, V domains shown, Labelled with Alexa Fluor 647 NHS ester for FACS) VH: QVQLQQSAAELARPGASVKMSCKASGYTFTTYTMHWVKQRPGQGLEWIGFINPSSGYTDYNQKFKDRTTLTADKSSSTVYMQLSSLTSEDSAVYYCANGDYYVAYWGQGTLVTVSA VL: QIVLTQSPAIMSASLGERVTMTCTASSSVSSTYFHWYQQKPGSSPKLWIYSTSNLASGVPRRFSGSASGTSYSLTISSMEAEDAATYYCHQYHRSPLTFGAGTKLELK
10 |  | 2650 |  |  |  |  |  |  | AB17 (antibody, V domains shown, Labelled with Alexa Fluor 647 NHS ester for FACS) VH: QVQLQQSGAELAKPGASVKMSCKASGYTFTGYWMHWVKQRPGQGLEWLGYINPSTGYTESNQKFKDKATLTADKSSTTAYMQLRSLTPEDSAVYYCAREGITTVLVDYWGQGTTLTVSS VL: QIVLTQSPAIMSASLGERVTMTCTASSSVSSSYLHWYQQKPGSSPKLWIYSTSNLASGVPARFSGSGSGTSYSLTISSMEAEDAATYYCHQYHRSPPTFGAGTKLELK
11 | 353 | 579 | 531 |  |  |  |  |  | AB7 (antibody, V domains shown, Labelled with Alexa Fluor 647 NHS ester for FACS) VH: EVQLQQSGPELVKPGASMKISCKASGYSFTGYTMNWVKQSHGKNLEWIGLINPYNGGTNYNQKFKGKATLTVDKSSSTAYMELLSLTSEDSAVYYCARGVYDYDGFTYWGQGTLVTVSA VL: QIVLTQSPAIMSASLGDRVTMTCTASSSVSSSYLHWYQQKPGSSPKLWIYSTSNLASGVPARFSGSGSGTSYSLTISSMEAEDAATYYCHQYHRSPPTFGSGTKLEIK
12 |  | ≥ 5000 |  |  |  |  |  |  | AB16 (antibody, V domains shown, Labelled with Alexa Fluor 647 NHS ester for FACS) VH: EVRLVESGGGLMQPGGSLKLPCAASGFPFSSSAMSWVRQTPEKRLEWVASINSDGNTYYPDSVKGRFTISRDSARNILYLQMSSLRSEDTAMYYCTRNGDYRYDEFAYWGQGTLVTVSA VL: not shown
13 |  | ≥ 5000 |  |  |  |  |  |  | AB19 (antibody, V domains shown, Labelled with Alexa Fluor 647 NHS ester for FACS) VH: EVQLQQSGPELVKPGGSMKISCKASGYSFTGYTMNWVKRSHGKNLEWIGLINPYNGVTTYNQNFKGKATLAVDKSSSTAYMELLGLTSEDSAVYYCTRDPLYYGYRDSTMDYWGQGTSVTVSS VL: NIMMTQSPSSLAVSAGEKVTMSCKSSQSVLFSSNQKNYLAWYQQKPGQSPRLLIYWASTRESGVPDRFTGSGSGTDFTLTISNVQAEDLAVYYCHQYLSSRTFGAGTKLELK
